# Measured values from US20150230430A1 (University of Pennsylvania, published 2015).
# T1: Gonadotropin Releasing Hormone (GnRH) peptide (mammalian (same amino acid sequence in …, N-terminal pyroglutamic acid (pGlu))); C-terminal amide (GlyNH2))
# T1 construct: GnRH peptide bought from Peptides International; also called LHRH; Luteinizing Hormone Releasing Hormone
# T1 peptide: EHWSYGLRPG
# B1: chimeric anti-GnRH antibody (murine variable regions of hybridoma USASK/DSIL-LHRH-A1, ATCC HB-9094, fused with human IgG1 heavy chain and kappa light chain … (antibody, V domains shown)
# VH: QIQLVQSGPELKKPGETVKISCKASGYPFTNYGMNWVKQAPGKGLKWMGWINTYTGEPACADDFRGRFAISLETSARTAYLQINNLINEDTATYFCARTGGGRYNYGMDYWGQGTSVTVSS
# VL: QIVLTQSPAIMSASPGEKVTITCSATSSVSYIHWFQQKPGTSPKLWIYSTSNLASGVPVRFSGSGSGTSYSLTISRMEAEDAATYYCQQRSSYPPTFGGGTKLEIKR
# notes: Full-length chimeric heavy and light chains: murine variable regions on human IgG1 and human kappa constant domains; Tested as filtered supernatant of transiently transfected 293 HEK cells; also called chimeric GnRH antibody; chimeric antibody
# Biological target: T1, Gonadotropin Releasing Hormone (GnRH) …
# Experiment: competition ELISA (Friguet method): supernatant pre-incubated overnight with free GnRH peptide, then GnRH-coated plate; nonlinear regression
# Protocol: Supernatant was harvested […] after transfection and passed through a 0.2 μm syringe filter (Corning, Corning, N.Y.). Filtered supernatant was evaluated for total antibody expression and GnRH binding activity using protein A and GnRH ELISAs, respectively. Polystyrene ELISA plates (Corning) were coated overnight at room temperature with protein A (5 μg/mL, Sigma Aldrich, St Louis, Mo.) or GnRH peptide (1 μg/mL, Peptides International, Louisville, Ky.) in phosphate buffered saline. Plates were washed five times with PBS containing 0.05% tween 20 (Sigma), then blocked for one hour at room temperature with 1% bovine serum albumin in PBS. Filtered supernatant serially diluted two-fold in PBS was incubated in blocked wells for one hour. Plates were washed five times, then incubated for one hour with a biotinylated goat anti-human IgG1 antibody (Jackson ImmunoResearch, West Grove, Pa.) diluted 1:10,000 in blocking solution. Plates were then washed, incubated with streptavidin-HRP (Abcam, Cambridge, Mass.) diluted 1:30,000 in blocking solution for one hour, washed again, and developed with TMB substrate (Sigma). The reaction was stopped after 20 minutes by the addition of 2 N sulfuric acid. Absorbance was measured at […], with a reading at 540 nm subtracted as background. […] The fraction of antibody binding sites occupied by GnRH was calculated using the method of Stevens, 1987. […]
binder,measurement,value
B1,Kd,3.9 nM
